Measurements: patent US20170095421A1 (published 2017)

Columns and labels:
Peptide 2 = test: SPR (Langmuir binding analysis); GPIIbIIIa mimotope
Peptide 1 = test: as above
GPIIbIIIa = test: SPR (Langmuir binding analysis)

Kd (Peptide 2): 334 nM
Kd (Peptide 1): 12500 nM
Kd (GPIIbIIIa): 10.3 nM
B1: Fibrinogen (ligand)
chain 1: ADSGEGDFLAEGGGVRGPRVVERHQSACKDSDWPFCSDEDWNYKCPSGCRMKGLIDEVNQDFTNRINKLKNSLFEYQKNNKDSHSLTTNIMEILRGDFSSANNRDNTYNRVSEDLRSRIEVLKRKVIEKVQHIQLLQKNVRAQLVDMKRLEVDIDIKIRSCRGSCSRALAREVDLKDYEDQQKQLEQVIAKDLLPSRDRQHLPLIKMKPVPDLVPGNFKSQLQKVPPEWKALTDMPQMRMELERPGGNEITRGGSTSYGTGSETESPRNPSSAGSWNSGSSGPGSTGNRNPGSSGTGGTATWKPGSSGPGSTGSWNSGSSGTGSTGNQNPGSPRPGSTGTWNPGSSERGSAGHWTSESSVSGSTGQWHSESGSFRPDSPGSGNARPNNPDWGTFEEVSGNVSPGTRREYHTEKLVTSKGDKELRTGKEKVTSGSTTTTRRSCSKTVTKTVIGPDGHKEVTKEVVTSEDGSDCPEAMDLGTLSGIGTLDGFRHRHPDEAAFFDTASTGKTFPGFFSPMLGEFVSETESRGSESGIFTNTKESSSHHPGIAEFPSRGKSSSYSKQFTSSTSYNRGDSTFESKSYKMADEAGSEADHEGTHSTKRGHAKSRPV
chain 2: QGVNDNEEGFFSARGHRPLDKKREEAPSLRPAPPPISGGGYRARPAKAAATQKKVERKAPDAGGCLHADPDLGVLCPTGCQLQEALLQQERPIRNSVDELNNNVEAVSQTSSSSFQYMYLLKDLWQKRQKQVKDNENVVNEYSSELEKHQLYIDETVNSNIPTNLRVLRSILENLRSKIQKLESDVSAQMEYCRTPCTVSCNIPVVSGKECEEIIRKGGETSEMYLIQPDSSVKPYRVYCDMNTENGGWTVIQNRQDGSVDFGRKWDPYKQGFGNVATNTDGKNYCGLPGEYWLGNDKISQLTRMGPTELLIEMEDWKGDKVKAHYGGFTVQNEANKYQISVNKYRGTAGNALMDGASQLMGENRTMTIHNGMFFSTYDRDNDGWLTSDPRKQCSKEDGGGWWYNRCHAANPNGRYYWGGQYTWDMAKHGTDDGVVWMNWKGSWYSMRKMSMKIRPFFPQQ
chain 3: YVATRDNCCILDERFGSYCPTTCGIADFLSTYQTKVDKDLQSLEDILHQVENKTSEVKQLIKAIQLTYNPDESSKPNMIDAATLKSRKMLEEIMKYEASILTHDSSIRYLQEIYNSNNQKIVNLKEKVAQLEAQCQEPCKDTVQIHDITGKDCQDIANKGAKQSGLYFIKPLKANQQFLVYCEIDGSGNGWTVFQKRLDGSVDFKKNWIQYKEGFGHLSPTGTTEFWLGNEKIHLISTQSAIPYALRVELEDWNGRTSTADYAMFKVGPEADKYRLTYAYFAGGDAGDAFDGFDFGDDPSDKFFTSHNGMQFSTWDNDNDKFEGNCAEQDGSGWWMNKCHAGHLNGVYYQGGTYSKASTPNGYDNGIIWATWKTRWYSMKKTTMKIIPFNRLTIGEGQQHHLGGAKQAGDV
